Substitutions are numbered along the chain they refer to. Names may count otherwise.
T1: human FcγRIIa extracellular domain, His-tagged GST fusion (human, UniProt P12318 34-217)
T1 construct: extracellular domain; also called hFcgRIIa; Human IIa
T1 sequence (looked up): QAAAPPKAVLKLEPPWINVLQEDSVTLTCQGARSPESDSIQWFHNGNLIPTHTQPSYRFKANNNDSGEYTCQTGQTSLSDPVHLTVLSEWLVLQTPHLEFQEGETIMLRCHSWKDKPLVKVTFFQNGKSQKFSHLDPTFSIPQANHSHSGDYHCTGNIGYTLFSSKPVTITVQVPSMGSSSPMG

T2: human FcγRIIb extracellular domain, His-tagged GST fusion (human, UniProt P31994 43-217)
T2 construct: extracellular domain; also called hFcgRIIb; Human IIb
T2 sequence (looked up): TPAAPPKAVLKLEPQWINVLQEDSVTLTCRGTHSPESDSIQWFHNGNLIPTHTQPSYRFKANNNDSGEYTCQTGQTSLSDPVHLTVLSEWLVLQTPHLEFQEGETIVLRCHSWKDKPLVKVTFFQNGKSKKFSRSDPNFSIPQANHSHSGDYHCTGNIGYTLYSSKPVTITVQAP

T3: mouse FcγRI extracellular domain, His-tagged GST fusion (mouse, UniProt P26151 25-297)
T3 construct: extracellular domain; also called Mouse I
T3 sequence (looked up): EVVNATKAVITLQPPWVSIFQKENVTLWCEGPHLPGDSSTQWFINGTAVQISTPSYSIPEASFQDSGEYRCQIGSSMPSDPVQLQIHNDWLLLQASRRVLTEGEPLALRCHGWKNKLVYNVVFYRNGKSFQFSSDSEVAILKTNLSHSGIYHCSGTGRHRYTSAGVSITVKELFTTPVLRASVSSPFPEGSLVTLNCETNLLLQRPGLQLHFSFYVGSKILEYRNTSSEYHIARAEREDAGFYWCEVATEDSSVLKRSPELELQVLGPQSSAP

T4: mouse FcγRII extracellular domain, His-tagged GST fusion (mouse, UniProt P08101 30-210)
T4 construct: extracellular domain; also called Mouse II
T4 sequence (looked up): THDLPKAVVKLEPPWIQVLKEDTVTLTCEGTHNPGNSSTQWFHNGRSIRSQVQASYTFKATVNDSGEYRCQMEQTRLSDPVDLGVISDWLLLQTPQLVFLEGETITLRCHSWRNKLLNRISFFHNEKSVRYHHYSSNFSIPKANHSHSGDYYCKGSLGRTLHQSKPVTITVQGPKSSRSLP

T5: mouse FcγRIII extracellular domain, His-tagged GST fusion (mouse, UniProt P08508 31-215)
T5 construct: extracellular domain; also called Mouse III
T5 sequence (looked up): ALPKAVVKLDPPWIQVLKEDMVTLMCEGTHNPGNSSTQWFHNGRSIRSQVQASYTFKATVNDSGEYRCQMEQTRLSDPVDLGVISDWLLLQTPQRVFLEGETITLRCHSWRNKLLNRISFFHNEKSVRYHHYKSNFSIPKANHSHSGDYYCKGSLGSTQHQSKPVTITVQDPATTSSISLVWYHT

B1: 9.1RF S298A/E333A/K334A IgG (antibody)
light: DIQMTQSPSSLSASVGDRVTITCKSSQSLLYSSNQNNYLAWYQQKPGKAPKLLIYWASTRESGVPSRFSGSGSGTDFTLTISSLQPEDFATYYCQQYYTYPYTFGQGTKVEIKRTVAAPSVFIFPPSDEQLKSGTASVVCLLNNFYPREAKVQWKVDNALQSGNSQESVTEQDSKDSTYSLSSTLTLSKADYEKHKVYACEVTHQGLSSPVTKSFNRGEC
heavy: EVQLVESGGGLVQPGGSLRLSCAASGFTVTAYYMSWVRQAPGKGLEWVGFIRDKANGYTTEYNPSVKGRFTISRDTSKNTFYLQMNSLRAEDTAVYYCAQVRRALDYWGQGTLVTVSSASTKGPSVFPLAPSSKSTSGGTAALGCLVKDYFPEPVTVSWNSGALTSGVHTFPAVLQSSGLYSLSSVVTVPSSSLGTQTYICNVNHKPSNTKVDKKVEPKSCDKTHTCPPCPAPELLGGPSVFLFPPKPKDTLMISRTPEVTCVVVDVSHEDPEVKFNWYVDGVEVHNAKTKPREEQYNATYRVVSVLTVLHQDWLNGKEYKCKVSNKALPAPIAATISKAKGQPREPQVYTLPPSREEMTKNQVSLTCLVKGFYPSDIAVEWESNGQPENNYKTTPPVLDSDGSFFLYSKLTVDKSRWQQGNVFSCSVMHEALHNHYTQKSLSLSPG
notes: Fc variant of 9.1RF, transient CHO expression; copies: 2 + 2
B2: 9.1RF IgG antibody (antibody)
light: B1 light
heavy: not shown
notes: produced in CHO cells; also called h9.1-RF; Hu9.1-RF-IgG; copies: 2 + 2
B3: 9.1RF S298A/K326A/E333A/K334A IgG (antibody)
light: B1 light
heavy: B1 heavy with K327A
notes: as for B1

Legend:
[1] = biological target: T6, human BR3 expressed on cells (human, UniProt Q96RJ3 1-184); assay: cell-based or functional assay
[2] = biological target: T7, human FcγRI extracellular domain, His-tagged GST fusion (human, UniProt P12314 16-292); assay: ELISA, captured FcgR-GST; EC50herceptin/EC50sample
T7 construct: extracellular domain; also called hFcgRI; Human I

[3] = biological target: T1, human FcγRIIa extracellular domain, …; assay: ELISA, captured FcgR-GST; EC50herceptin/EC50sample
[4] = biological target: T2, human FcγRIIb extracellular domain, …; assay: ELISA, captured FcgR-GST; EC50herceptin/EC50sample
[5] = biological target: T3, mouse FcγRI extracellular domain, …; assay: ELISA, captured FcgR-GST; EC50herceptin/EC50sample
[6] = biological target: T4, mouse FcγRII extracellular domain, …; assay: ELISA, captured FcgR-GST; EC50herceptin/EC50sample
[7] = biological target: T5, mouse FcγRIII extracellular domain, …; assay: ELISA, captured FcgR-GST; EC50herceptin/EC50sample
[8] = biological target: T6, human BR3 expressed on cells; assay: BJAB cells, direct binding
human FcRn [9] = biological target: T8, human FcRn (human, UniProt P55899 24-297; P61769 21-119, limits assumed); assay: SPR, FcRn on chip, kinetic, pH 6
T8 construct: construct not described; also called huFcRn

cynomolgus FcRn [10] = biological target: T9, cynomolgus FcRn (cynomolgus monkey, UniProt Q8SPV9 24-297; Q8SPW0 21-119, limits assumed); assay: SPR, FcRn on chip, kinetic, pH 6
T9 construct: construct not described; also called cynoFcRn; cyno FcRn

[11] = biological target: T10, human BR3 extracellular domain (human, UniProt Q96RJ3 1-61); assay: SPR, IgG on chip, BR3 ECD in solution
T10 construct: biotinylated where used as tracer; also called hBR3-ECD; BR3-ECD

[12] = biological target: T6, human BR3 expressed on cells; assay: BJAB cells, competition with biotin-BAFF
human FcRn [13] = biological target: T8, human FcRn; assay: SPR, FcRn on chip, kinetic, pH 6.0 (KDa)
cynomolgus FcRn [14] = biological target: T9, cynomolgus FcRn; assay: SPR, FcRn on chip, kinetic, pH 6.0 (KDa)
human FcRn [15] = biological target: T8, human FcRn; assay: SPR, FcRn on chip, equilibrium, pH 6.0 (KDb)
cynomolgus FcRn [16] = biological target: T9, cynomolgus FcRn; assay: SPR, FcRn on chip, equilibrium, pH 6.0 (KDb)
[17] = biological target: T7, human FcγRI extracellular domain, …; assay: ELISA, captured FcgR-GST; A450 ratio to 9.1RF
[18] = biological target: T1, human FcγRIIa extracellular domain, …; assay: ELISA, captured FcgR-GST; A450 ratio to 9.1RF
[19] = biological target: T2, human FcγRIIb extracellular domain, …; assay: ELISA, captured FcgR-GST; A450 ratio to 9.1RF
[20] = biological target: T7, human FcγRI extracellular domain, …; assay: ELISA, receptor-His-GST captured by anti-GST, uncomplexed IgG
[21] = biological target: T1, human FcγRIIa extracellular domain, …; assay: ELISA, receptor-His-GST captured by anti-GST, IgG complexed with anti-kappa F(ab')2

Row | Binder | ADCC activity relative to 9.1wt (relative EC50 values) [1] [fold] | ADCC on BJAB cells (LDH release), EC50 [1] [nM] | fold improvement in binding vs Herceptin [2] [fold] | fold improvement in binding vs Herceptin [3] [fold] | fold improvement in binding vs Herceptin [4] [fold] | fold improvement in binding vs Herceptin [5] [fold] | fold improvement in binding vs Herceptin [6] [fold] | fold improvement in binding vs Herceptin [7] [fold] | also measured
1 | B1 | 2.8 | < 1 | 0.7 | 0.2 | 0.4 | 2.5 | 0.4 | 0.6 | –
2 | B2 | – | – | 1 | 2.3 | 0.7 | 1.2 | 0.7 | 0.8 | EC50 [8]: 0.46 nM; koff (human FcRn [9]): 0.0784 s⁻¹; kon (human FcRn [9]): 635000 M⁻¹ s⁻¹; koff (cynomolgus FcRn [10]): 0.192 s⁻¹; kon (cynomolgus FcRn [10]): 1.01e+06 M⁻¹ s⁻¹; Kd [11]: 0.169 nM; koff [11]: 0.000309 s⁻¹; kon [11]: 1.8e+06 M⁻¹ s⁻¹; IC50 [12]: 0.68 nM; Kd (human FcRn [13]): 123 nM; Kd (cynomolgus FcRn [14]): 191 nM; Kd (human FcRn [15]): 118 nM; Kd (cynomolgus FcRn [16]): 186 nM; binding relative to 9.1RF [17]: 1 ratio; binding relative to 9.1RF [18]: 1 ratio; binding relative to 9.1RF [19]: 1 ratio; EC50 (read off the curve) [20]: ~0.006 µg/mL; EC50 (read off the curve) [21]: ~1 µg/mL
3 | B3 | 3 | < 1 | 0.6 | 0.2 | 0.7 | 1.9 | 1.3 | 1.2 | –

Reference: patent US20100280227A1 (Genentech, published 2010)
